Experimental data: the supplement of paper PMC10567573

B1: ATL3 (parent)
chain: EKALASILLQDHIRDLDVVVVSVA
B2: INTS4 (parent)
chain: AKQIMEETYKMEFMYSGVENKQVV

Variants of: B1
Assay: protein stability index of a GFP-peptide fusion (GPS, HEK-293T) (PSI 1-6); higher = more stable
Details: c terminus: a fixed tail appended
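Also: lentivirally expressed fusions sorted by FACS into six bins by GFP to DsRed ratio, PSI derived from sequencing read proportions per bin multiplied by bin number.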

Protein stability index of substitutions, site by site:
I7: Y 2.15, S 2.85, T 2.13, R 2.08
D17: P 2.93, I 1.36, Y 3.45, A 3.11, Q 1.93, M 2.05
V21: A 1.16, Y 1.75, T 1.62, N 2.16, Q 2.6, D 3.39, P 2.56, C 2.07, H 1.51, S 1.81, R 3.63, I 2.63
V18: K 2.27, E 2.48, C 1.66, I 2.02, H 1.06, N 2, Q 1.59, Y 3.61, D 2.74, P 2.34, T 3.46
R14: N 3.67, F 3.13, T 1.49, K 3.11, W 3.58, L 3.36, D 2.15, P 1.55
D15: V 2.55, I 2.33, W 2.5
D11: K 3.25, E 3.13, G 3.66, P 3.03
A24: G 2.39, P 2.53, N 2.01, C 4.82, M 1.8
Q10: S 2.87, N 2.98, Y 3.47
S22: R 2.97, E 2.86, P 1.91, D 2.35, L 2.02, G 1.07, H 1.84
L16: Q 1.37, N 1.46, K 1.23, A 1.31, D 1.67, R 1.03, S 2.37, P 1.57
L9: E 3.11, P 1.61, M 2.46, K 3.25, H 2.71
H12: E 2.17, G 4.08, P 2.97, I 3.19, T 2.26, L 2.48
V19: N 1.72, G 2.25, A 1.64, R 2.19, C 4.35, Q 1.42, H 2.29, K 1.96, P 2.52, D 3.81, S 2.01
L8: N 1.04, W 3.89, G 2.62, I 2.89, T 1.55, Q 2.63, E 1.98, P 2.34, K 1.14, A 2.99
V23: S 3.22, N 2.32, D 3.01, A 2.21, L 2.76, G 3.31, F 3.83, R 1.41, Q 1.96, P 2.45, K 2.38, H 1.19
I13: Y 3.9, S 1.26, T 3.04, D 3.12
V20: M 1.82, E 2.89, T 1.89, Y 2.34, W 3.67, N 3.1, H 2.18, Q 2.1, D 2.79, A 1.58, P 3.2, R 2.2, L 3.35, K 2.79

Variants of: B2
Assay: as above
Details: c terminus: a fixed tail appended

Protein stability index, by site and new letter:
E7: L 1.38, G 2.1, Q 1.86, K 2.55, M 1.5, C 1.71, D 1.68, Y 2.21, P 2.93
Q22: N 1.31, H 1.98
Q3: N 1.68, L 1.75, S 2.35, K 1.96, D 2.26, Y 1.84, H 1.69, P 2.85, A 2.15
V24: K 1.98, Q 1.89, H 1.65, P 2.54, W 2.33, I 1.51, E 1.78, A 1.75, N 2.44
Y15: P 3.04, T 2.08, Q 2.61, C 1.93, S 2.15, N 2.31, D 2.37, M 2.54, L 3.19, W 1.67, I 2
K2: R 1.4, G 3.06, C 2.23, L 2.62, D 3.15, F 2.51, E 3.43, V 2.04, W 3.22, Y 1.87, Q 2.27, H 3.23, S 2.44, N 3.62
N20: T 1.36, Y 1.73, V 1.17, D 1.33, H 1.59, F 2.86, E 2.44
K21: P 2.99, S 2.51, H 1.75, C 1.92, F 3.8
E19: A 2.52, D 1.78, T 1.85, L 1.2, H 2.06, P 1.56
E12: G 2.66, R 2.34, V 1.06, F 1.95, Q 2.42, C 1.6, H 2.32, W 2.48, M 2.43
E6: K 1.89, C 1.73, P 2.16, W 2.12, N 2.12
M11: D 4.33, I 3.35, R 3.42, Y 2.68, N 3.98, P 3.85, G 3.28, E 3.9, T 2.9
V23: D 1.68, R 1.95, M 3.75, P 1.42, N 2.18, G 1.32, I 2.2, S 1.76
K10: P 3.79, S 1.81, M 1.99, L 1.96, I 1.92, D 3.55, T 1.43, W 1.96, Q 1.67, G 2.48, A 1.91, N 1.32, C 1.6, Y 2.14
I4: Y 2.48, N 2.58, D 2.92, S 2.99, E 3.46, V 2.42, K 2.38, H 2.04
A1: E 3.37, W 2.44, Y 2.1, G 2.39, L 2.44, M 1.34, D 3.46, S 2.82
T8: S 2.39, H 2.54, C 1.52, R 1.84, Q 2.19, I 1.28, V 1.89, K 2.85, F 1.64
M5: P 2.54, T 2.98, L 4.9, V 2.2, K 3.05
G17: D 1.84, H 2.5, L 1.49, E 1.55, N 1.48, C 2.87, T 1.06, S 1.59
S16: Y 1.76, L 2.08, N 1.98, F 3.1, P 2, C 2.1
M14: A 2.25, V 1.71, F 1.77, H 1.87, D 3.4, Y 1.25, I 1.54, C 1.98, Q 2.11
F13: R 3.52, C 2.96, M 1.86, G 3.94, N 4.04, Y 2.96, W 1.79, T 3.57, K 3.12, V 1.67
V18: P 2.5, N 2.02, A 2.04, R 1.54, C 1.92, Y 1.9, Q 2.34, D 1.88, L 2.12, M 1.75
Y9: M 3.43, H 3.61, T 3.87, D 3.83, V 3.1, P 3.78, N 4.24, A 3.9, K 3.57, L 2.67, E 4.34
